In publication PMC7001106, “Lipid Interactions of a Ciliary Membrane TRP Channel: Simulation and Structural Studies of Polycystin-2” (Structure(London, England:1993), 2020):

Target: the molecule itself
Test: cryo-EM structure; purified PC2 185-723 in UDM detergent, incubated overnight at 4°C with 18:0-20:4 PI(4,5)P2 (1:20, tetramer:lipid) or 18:1 PI(3,5)P2 (1:40); C4 symmetry imposed in the reconstruction

B1: Polycystin-2, truncated construct hPC2: Pro185 - Asp723 (domain or fragment, human, UniProt Q13563 185-723, looked up)
chain: PRVAWAERLVRGLRGLWGTRLMEESSTNREKYLKSVLRELVTYLLFLIVLCILTYGMMSSNVYYYTRMMSQLFLDTPVSKTEKTNFKTLSSMEDFWKFTEGSLLDGLYWKMQPSNQTEADNRSFIFYENLLLGVPRIRQLRVRNGSCSIPQDLRDEIKECYDVYSVSSEDRAPFGPRNGTAWIYTSEKDLNGSSHWGIIATYSGAGYYLDLSRTREETAAQVASLKKNVWLDRGTRATFIDFSVYNANINLFCVVRLLVEFPATGGVIPSWQFQPLKLIRYVTTFDFFLAACEIIFCFFIFYYVVEEILEIRIHKLHYFRSFWNCLDVVIVVLSVVAIGINIYRTSNVEVLLQFLEDQNTFPNFEHLAYWQIQFNNIAAVTVFFVWIKLFKFINFNRTMSQLSTTMSRCAKDLFGFAIMFFIIFLAYAQLAYLVFGTQVDDFSTFQECIFTQFRIILGDINFAEIEEANRVLGPIYFTTFVFFMFFILLNMFLAIINDTYSEVKSDLAQQKAEMELSDLIRKGYHKALVKLKLKKNTVD
notes: Polycystin-2 (PC2, PKD2, TRPP1), human, residues Pro185 to Asp723; For cryo-EM the protein was treated with alpha-L-fucosidase, PNGase F and TEV protease (the tag stands after a TEV site); The forward primer carries an ATG before the Pro185 codon; Homo-tetramer; also called PKD2; TRPP1; not shown: His10, C-terminal, cleaved; FLAG, C-terminal, cleaved
Which “stoichiometry N” value does the source give for B1 here?
Its value is 4.
